# B1: Homeobox protein SIX1 (Homo sapiens), Q15475 (parent)
# chain: MSMLPSFGFTQEQVACVCEVLQQGGNLERLGRFLWSLPACDHLHKNESVLKAKAVVAFHRGNFRELYKILESHQFSPHNHPKLQQLWLKAHYVEAEKLRGRPLGAVGKYRVRRKFPLPRTIWDGEETSYCFKEKSRGVLREWYAHNPYPSPREKRELAEATGLTTTQVSNWFKNRRQRDRAAEAKERENTENNNSSSNKQNQLSPLEGGKPLMSSSEEEFSPPQSPDQNSVLLLQGNMGHARSSNYSLPGLTASQPSHGLQTHQHQLQDSLLGPLTSSLVDLGS
# partner: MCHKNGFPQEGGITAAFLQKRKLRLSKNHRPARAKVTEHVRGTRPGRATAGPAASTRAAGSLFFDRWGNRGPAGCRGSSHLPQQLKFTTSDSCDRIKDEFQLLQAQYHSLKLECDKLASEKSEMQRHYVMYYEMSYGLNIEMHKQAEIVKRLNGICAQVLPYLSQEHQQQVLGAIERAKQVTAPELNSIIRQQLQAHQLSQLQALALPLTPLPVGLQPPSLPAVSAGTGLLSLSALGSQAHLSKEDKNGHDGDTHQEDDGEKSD
# B2: Fibulin-5 (Homo sapiens), Q9UBX5 (parent)
# chain: MPGIKRILTVTILALCLPSPGNAQAQCTNGFDLDRQSGQCLDIDECRTIPEACRGDMMCVNQNGGYLCIPRTNPVYRGPYSNPYSTPYSGPYPAAAPPLSAPNYPTISRPLICRFGYQMDESNQCVDVDECATDSHQCNPTQICINTEGGYTCSCTDGYWLLEGQCLDIDECRYGYCQQLCANVPGSYSCTCNPGFTLNEDGRSCQDVNECATENPCVQTCVNTYGSFICRCDPGYELEEDGVHCSDMDECSFSEFLCQHECVNQPGTYFCSCPPGYILLDDNRSCQDINECEHRNHTCNLQQTCYNLQGGFKCIDPIRCEEPYLRISDNRCMCPAENPGCRDQPFTILYRDMDVVSGRSVPADIFQMQATTRYPGAYYIFQIKSGNEGREFYMRQTGPISATLVMTRPIKGPREIQLDLEMITVNTVINFRGSSVIRLRIYVSQYPF
# B3: U4/U6 small nuclear ribonucleoprotein Prp31 (Homo sapiens), Q8WWY3 (parent)
# chain: MSLADELLADLEEAAEEEEGGSYGEEEEEPAIEDVQEETQLDLSGDSVKTIAKLWDSKMFAEIMMKIEEYISKQAKASEVMGPVEAAPEYRVIVDANNLTVEIENELNIIHKFIRDKYSKRFPELESLVPNALDYIRTVKELGNSLDKCKNNENLQQILTNATIMVVSVTASTTQGQQLSEEELERLEEACDMALELNASKHRIYEYVESRMSFIAPNLSIIIGASTAAKIMGVAGGLTNLSKMPACNIMLLGAQRKTLSGFSSTSVLPHTGYIYHSDIVQSLPPDLRRKAARLVAAKCTLAARVDSFHESTEGKVGYELKDEIERKFDKWQEPPPVKQVKPLPAPLDGQRKKRGGRRYRKMKERLGLTEIRKQANRMSFGEIEEDAYQEDLGFSLGHLGKSGSGRVRQTQVNEATKARISKTLQRTLQKQSVVYGGKSTIRDRSSGTASSVAFTPLQGLEIVNPQAAEKKVAEANQKYFSSMAEFLKVKGEKSGLMST
# partner: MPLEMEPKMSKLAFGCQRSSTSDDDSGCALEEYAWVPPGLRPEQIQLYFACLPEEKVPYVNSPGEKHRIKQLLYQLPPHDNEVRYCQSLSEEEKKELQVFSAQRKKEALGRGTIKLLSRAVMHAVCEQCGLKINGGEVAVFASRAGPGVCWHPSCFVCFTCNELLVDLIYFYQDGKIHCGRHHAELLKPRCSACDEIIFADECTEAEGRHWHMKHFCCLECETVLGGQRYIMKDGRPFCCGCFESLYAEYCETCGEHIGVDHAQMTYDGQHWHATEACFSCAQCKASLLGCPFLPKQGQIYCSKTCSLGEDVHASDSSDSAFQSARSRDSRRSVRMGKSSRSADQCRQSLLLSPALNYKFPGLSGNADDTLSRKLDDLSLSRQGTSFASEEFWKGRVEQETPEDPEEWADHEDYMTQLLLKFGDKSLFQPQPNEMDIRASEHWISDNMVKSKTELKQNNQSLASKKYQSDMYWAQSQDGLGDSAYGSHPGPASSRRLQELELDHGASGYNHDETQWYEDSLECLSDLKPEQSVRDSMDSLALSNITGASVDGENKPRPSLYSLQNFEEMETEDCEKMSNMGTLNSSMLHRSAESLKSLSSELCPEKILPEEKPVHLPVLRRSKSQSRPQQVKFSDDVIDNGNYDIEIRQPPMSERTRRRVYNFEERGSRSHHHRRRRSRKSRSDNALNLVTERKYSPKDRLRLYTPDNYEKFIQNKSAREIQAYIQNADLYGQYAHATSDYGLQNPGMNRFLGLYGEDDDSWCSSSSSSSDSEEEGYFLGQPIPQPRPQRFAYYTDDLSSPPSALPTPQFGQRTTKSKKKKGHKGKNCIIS
# B4: U4/U6 small nuclear ribonucleoprotein Prp31 (Homo sapiens), Q8WWY3 (parent)
# chain: B3 chain
# partner: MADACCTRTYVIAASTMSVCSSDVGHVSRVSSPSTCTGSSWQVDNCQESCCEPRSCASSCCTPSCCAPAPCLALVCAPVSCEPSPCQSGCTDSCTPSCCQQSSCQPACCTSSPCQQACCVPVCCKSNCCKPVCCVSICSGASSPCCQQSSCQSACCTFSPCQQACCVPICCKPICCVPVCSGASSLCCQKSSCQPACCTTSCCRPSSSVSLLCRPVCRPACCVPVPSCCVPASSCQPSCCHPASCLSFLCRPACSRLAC
# B5: DNA repair protein XRCC4 (Homo sapiens), Q13426 (parent)
# chain: MERKISRIHLVSEPSITHFLQVSWEKTLESGFVITLTDGHSAWTGTVSESEISQEADDMAMEKGKYVGELRKALLSGAGPADVYTFNFSKESCYFFFEKNLKDVSFRLGSFNLEKVENPAEVIRELICYCLDTIAENQAKNEHLQKENERLLRDWNDVQGRFEKCVSAKEALETDLYKRFILVLNEKKTKIRSLHNKLLNAAQEREKDIKQEGETAICSEMTADRDPVYDESTDEESENQTDLSGLASAAVSKDDSIISSLDVTDIAPSRKRRQRMQRNLGTEPKMAPQENQLQEKENSRPDSSLPETSKKEHISAENMSLETLRNSSPEDLFDEI
# B6: EF-hand domain-containing protein 1 (Homo sapiens), Q5JVL4 (parent)
# chain: MVSNPVHGLPFLPGTSFKDSTKTAFHRSQTLSYRNGYAIVRRPTVGIGGDRLQFNQLSQAELDELASKAPVLTYGQPKQAPPADFIPAHVAFDKKVLKFDAYFQEDVPMSTEEQYRIRQVNIYYYLEDDSMSVIEPVVENSGILQGKLIKRQRLAKNDRGDHYHWKDLNRGINITIYGKTFRVVDCDQFTQVFLESQGIELNPPEKMALDPYTELRKQPLRKYVTPSDFDQLKQFLTFDKQVLRFYAIWDDTDSMYGECRTYIIHYYLMDDTVEIREVHERNDGRDPFPLLMNRQRVPKVLVENAKNFPQCVLEISDQEVLEWYTAKDFIVGKSLTILGRTFFIYDCDPFTRRYYKEKFGITDLPRIDVSKREPPPVKQELPPYNGFGLVEDSAQNCFALIPKAPKKDVIKMLVNDNKVLRYLAVLESPIPEDKDRRFVFSYFLATDMISIFEPPVRNSGIIGGKYLGRTKVVKPYSTVDNPVYYGPSDFFIGAVIEVFGHRFIILDTDEYVLKYMESNAAQYSPEALASIQNHVRKREAPAPEAESKQTEKDPGVQELEALIDTIQKQLKDHSCKDNIREAFQIYDKEASGYVDRDMFFKICESLNVPVDDSLVKELIRMCSHGEGKINYYNFVRAFSN
# partner: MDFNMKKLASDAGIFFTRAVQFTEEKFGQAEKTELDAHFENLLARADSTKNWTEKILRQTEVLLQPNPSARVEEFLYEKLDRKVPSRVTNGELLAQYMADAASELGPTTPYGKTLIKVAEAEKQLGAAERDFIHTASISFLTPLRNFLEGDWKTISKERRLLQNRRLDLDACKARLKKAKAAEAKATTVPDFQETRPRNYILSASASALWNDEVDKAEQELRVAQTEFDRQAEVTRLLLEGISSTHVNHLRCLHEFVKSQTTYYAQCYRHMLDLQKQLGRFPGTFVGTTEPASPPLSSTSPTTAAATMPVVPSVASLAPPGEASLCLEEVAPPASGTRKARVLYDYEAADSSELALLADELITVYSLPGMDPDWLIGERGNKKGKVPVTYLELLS
# Variants of: B1
# Settings: with TLE5, Q08117-2
row,Variant,effect of a mutation on the interaction
1,D227Y,with no effect
2,R112C,with no effect
3,R110W,with no effect

# Variants of: B2
# Settings: with otx1_human OTX1, P32242
# Sequence of otx1_human OTX1, P32242 (P32242 whole entry): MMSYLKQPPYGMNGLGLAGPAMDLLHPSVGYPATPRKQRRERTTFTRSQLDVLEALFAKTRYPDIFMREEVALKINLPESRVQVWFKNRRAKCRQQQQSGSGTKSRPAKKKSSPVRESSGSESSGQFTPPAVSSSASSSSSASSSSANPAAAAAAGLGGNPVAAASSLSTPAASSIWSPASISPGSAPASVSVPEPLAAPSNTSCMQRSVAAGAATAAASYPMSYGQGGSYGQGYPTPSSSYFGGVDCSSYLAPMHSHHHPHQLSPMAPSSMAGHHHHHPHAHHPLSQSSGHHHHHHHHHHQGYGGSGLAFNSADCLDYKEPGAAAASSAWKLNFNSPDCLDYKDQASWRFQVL
row,Variant,effect of a mutation on the interaction
1,V60L,disrupting interaction strength

# Variants of: B2
# Settings: with meox2_human MEOX2, P50222
# Sequence of meox2_human MEOX2, P50222 (P50222 whole entry): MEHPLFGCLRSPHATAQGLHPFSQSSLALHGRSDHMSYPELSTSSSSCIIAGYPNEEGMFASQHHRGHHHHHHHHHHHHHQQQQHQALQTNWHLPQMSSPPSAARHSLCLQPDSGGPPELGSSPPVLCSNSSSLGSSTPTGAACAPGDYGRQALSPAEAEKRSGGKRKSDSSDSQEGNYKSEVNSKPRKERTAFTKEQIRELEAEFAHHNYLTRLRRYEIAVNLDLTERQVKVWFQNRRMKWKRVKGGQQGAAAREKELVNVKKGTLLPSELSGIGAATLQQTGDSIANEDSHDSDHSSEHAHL
row,Variant,effect of a mutation on the interaction
1,V60L,disrupting interaction strength

# Variants of: B3
# Settings: with pric1_human PRICKLE1, Q96MT3
row,Variant,effect of a mutation on the interaction
1,L107V,with no effect

# Variants of: B4
# Settings: with kr108_human KRTAP10-8, P60410
row,Variant,effect of a mutation on the interaction
1,L107V,with no effect

# Variants of: B5
# Settings: with XRCC4, Q13426-3
row,Variant,effect of a mutation on the interaction
1,I134T,with no effect

# Variants of: B6
# Settings: with shlb2_human SH3GLB2, Q9NR46
row,Variant,effect of a mutation on the interaction
1,A394S,disrupting interaction strength
